# Results from article PMC5916898, “Global profiling of protein–DNA and protein–nucleosome binding affinities using quantitative mass spectrometry”.
# T1: ZBTB10 (Homo sapiens, UniProt Q96DT7)
# T1 sequence: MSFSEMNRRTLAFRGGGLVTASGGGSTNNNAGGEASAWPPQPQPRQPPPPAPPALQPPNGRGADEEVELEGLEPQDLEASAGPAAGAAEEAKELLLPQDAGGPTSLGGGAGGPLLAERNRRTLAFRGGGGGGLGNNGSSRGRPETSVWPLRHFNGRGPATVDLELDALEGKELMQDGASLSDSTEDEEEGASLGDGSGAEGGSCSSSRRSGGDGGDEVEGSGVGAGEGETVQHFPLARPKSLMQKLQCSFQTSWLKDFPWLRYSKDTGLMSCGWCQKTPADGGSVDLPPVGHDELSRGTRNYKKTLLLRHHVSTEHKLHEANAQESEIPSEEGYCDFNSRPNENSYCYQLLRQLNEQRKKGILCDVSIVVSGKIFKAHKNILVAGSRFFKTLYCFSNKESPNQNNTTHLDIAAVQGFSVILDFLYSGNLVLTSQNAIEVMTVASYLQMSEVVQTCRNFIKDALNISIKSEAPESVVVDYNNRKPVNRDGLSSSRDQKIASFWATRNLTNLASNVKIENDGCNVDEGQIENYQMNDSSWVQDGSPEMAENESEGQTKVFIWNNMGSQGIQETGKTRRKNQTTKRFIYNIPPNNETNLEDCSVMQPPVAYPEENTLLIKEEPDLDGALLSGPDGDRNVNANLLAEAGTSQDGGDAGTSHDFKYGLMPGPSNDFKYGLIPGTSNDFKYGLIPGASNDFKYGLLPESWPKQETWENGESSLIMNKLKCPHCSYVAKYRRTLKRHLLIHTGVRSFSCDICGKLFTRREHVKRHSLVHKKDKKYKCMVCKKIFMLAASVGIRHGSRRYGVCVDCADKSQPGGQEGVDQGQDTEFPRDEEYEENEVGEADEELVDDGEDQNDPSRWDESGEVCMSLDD
# T2: ESRRA (Homo sapiens, UniProt P11474)
# T2 sequence: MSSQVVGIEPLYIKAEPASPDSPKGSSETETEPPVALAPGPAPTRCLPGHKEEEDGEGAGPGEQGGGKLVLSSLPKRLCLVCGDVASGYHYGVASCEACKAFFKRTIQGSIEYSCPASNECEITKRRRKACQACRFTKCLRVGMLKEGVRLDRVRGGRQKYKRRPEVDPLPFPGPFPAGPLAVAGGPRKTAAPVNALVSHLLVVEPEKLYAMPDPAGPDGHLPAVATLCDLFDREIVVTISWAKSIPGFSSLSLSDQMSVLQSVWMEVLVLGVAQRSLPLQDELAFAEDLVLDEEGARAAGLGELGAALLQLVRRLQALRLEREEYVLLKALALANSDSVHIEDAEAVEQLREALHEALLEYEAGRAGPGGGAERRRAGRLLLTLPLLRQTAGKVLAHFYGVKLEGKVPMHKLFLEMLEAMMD
# T3: NFATC3 (Homo sapiens, UniProt Q12968)
# T3 sequence: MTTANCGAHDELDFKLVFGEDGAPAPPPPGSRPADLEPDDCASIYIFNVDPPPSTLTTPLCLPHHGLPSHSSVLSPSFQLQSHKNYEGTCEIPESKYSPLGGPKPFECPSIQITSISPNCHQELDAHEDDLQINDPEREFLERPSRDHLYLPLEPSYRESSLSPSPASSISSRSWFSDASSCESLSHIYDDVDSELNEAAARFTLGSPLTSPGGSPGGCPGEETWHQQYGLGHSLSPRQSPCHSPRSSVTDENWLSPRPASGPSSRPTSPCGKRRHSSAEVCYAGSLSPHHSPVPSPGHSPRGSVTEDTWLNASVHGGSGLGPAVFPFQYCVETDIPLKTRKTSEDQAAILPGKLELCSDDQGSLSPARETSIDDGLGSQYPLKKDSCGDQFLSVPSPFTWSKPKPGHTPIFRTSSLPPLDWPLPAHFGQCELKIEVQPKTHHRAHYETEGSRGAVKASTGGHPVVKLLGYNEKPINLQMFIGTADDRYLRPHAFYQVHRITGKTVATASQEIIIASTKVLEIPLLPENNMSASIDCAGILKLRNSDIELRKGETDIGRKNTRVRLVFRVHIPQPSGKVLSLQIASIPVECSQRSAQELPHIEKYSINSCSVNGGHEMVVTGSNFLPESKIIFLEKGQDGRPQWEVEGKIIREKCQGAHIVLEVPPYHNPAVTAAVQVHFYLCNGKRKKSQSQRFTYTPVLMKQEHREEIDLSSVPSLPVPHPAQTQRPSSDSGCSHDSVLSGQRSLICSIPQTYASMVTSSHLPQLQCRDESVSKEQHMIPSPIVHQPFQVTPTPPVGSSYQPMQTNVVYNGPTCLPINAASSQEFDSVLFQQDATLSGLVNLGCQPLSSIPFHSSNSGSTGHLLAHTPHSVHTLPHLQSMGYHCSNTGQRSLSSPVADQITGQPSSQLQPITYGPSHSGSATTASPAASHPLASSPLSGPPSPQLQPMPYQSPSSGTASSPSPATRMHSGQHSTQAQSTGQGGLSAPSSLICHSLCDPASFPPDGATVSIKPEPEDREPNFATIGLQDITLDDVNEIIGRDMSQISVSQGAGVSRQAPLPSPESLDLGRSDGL
# How the values were obtained:
# Test in all cases: pulldown; 150 mM NaCl, 50 mM Tris pH 8, 0.25% NP-40, 1 mM TCEP; 4 C, 2 h; 100 ug HeLa nuclear lysate
# Conditions in all cases: protein: extract; label: 5' biotin (strand 1)
# ZFHX3 = ZFHX3 (Homo sapiens, UniProt Q15911)
# ZBTB10 = target: T1, ZBTB10
# ESRRA = target: T2, ESRRA
# SMAD4 = SMAD4 (Homo sapiens, UniProt Q13485)
# NFATC3 = target: T3, NFATC3
# Chain of SMAD4 (Q13485 whole entry): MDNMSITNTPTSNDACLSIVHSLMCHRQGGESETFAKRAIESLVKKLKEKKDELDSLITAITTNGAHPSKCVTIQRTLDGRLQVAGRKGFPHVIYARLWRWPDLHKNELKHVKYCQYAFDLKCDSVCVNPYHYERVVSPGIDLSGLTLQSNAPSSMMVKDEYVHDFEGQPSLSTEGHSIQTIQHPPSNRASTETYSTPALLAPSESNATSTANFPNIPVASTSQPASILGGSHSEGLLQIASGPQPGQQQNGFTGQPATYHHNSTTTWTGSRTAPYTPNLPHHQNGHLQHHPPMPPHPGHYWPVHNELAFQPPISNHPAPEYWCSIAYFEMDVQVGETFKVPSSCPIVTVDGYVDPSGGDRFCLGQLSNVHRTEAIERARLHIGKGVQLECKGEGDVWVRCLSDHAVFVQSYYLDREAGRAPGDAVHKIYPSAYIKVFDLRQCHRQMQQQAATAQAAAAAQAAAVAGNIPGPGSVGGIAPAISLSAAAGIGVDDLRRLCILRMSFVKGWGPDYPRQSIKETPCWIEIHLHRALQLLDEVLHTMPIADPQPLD
# Chain of ZFHX3 (Q15911 whole entry): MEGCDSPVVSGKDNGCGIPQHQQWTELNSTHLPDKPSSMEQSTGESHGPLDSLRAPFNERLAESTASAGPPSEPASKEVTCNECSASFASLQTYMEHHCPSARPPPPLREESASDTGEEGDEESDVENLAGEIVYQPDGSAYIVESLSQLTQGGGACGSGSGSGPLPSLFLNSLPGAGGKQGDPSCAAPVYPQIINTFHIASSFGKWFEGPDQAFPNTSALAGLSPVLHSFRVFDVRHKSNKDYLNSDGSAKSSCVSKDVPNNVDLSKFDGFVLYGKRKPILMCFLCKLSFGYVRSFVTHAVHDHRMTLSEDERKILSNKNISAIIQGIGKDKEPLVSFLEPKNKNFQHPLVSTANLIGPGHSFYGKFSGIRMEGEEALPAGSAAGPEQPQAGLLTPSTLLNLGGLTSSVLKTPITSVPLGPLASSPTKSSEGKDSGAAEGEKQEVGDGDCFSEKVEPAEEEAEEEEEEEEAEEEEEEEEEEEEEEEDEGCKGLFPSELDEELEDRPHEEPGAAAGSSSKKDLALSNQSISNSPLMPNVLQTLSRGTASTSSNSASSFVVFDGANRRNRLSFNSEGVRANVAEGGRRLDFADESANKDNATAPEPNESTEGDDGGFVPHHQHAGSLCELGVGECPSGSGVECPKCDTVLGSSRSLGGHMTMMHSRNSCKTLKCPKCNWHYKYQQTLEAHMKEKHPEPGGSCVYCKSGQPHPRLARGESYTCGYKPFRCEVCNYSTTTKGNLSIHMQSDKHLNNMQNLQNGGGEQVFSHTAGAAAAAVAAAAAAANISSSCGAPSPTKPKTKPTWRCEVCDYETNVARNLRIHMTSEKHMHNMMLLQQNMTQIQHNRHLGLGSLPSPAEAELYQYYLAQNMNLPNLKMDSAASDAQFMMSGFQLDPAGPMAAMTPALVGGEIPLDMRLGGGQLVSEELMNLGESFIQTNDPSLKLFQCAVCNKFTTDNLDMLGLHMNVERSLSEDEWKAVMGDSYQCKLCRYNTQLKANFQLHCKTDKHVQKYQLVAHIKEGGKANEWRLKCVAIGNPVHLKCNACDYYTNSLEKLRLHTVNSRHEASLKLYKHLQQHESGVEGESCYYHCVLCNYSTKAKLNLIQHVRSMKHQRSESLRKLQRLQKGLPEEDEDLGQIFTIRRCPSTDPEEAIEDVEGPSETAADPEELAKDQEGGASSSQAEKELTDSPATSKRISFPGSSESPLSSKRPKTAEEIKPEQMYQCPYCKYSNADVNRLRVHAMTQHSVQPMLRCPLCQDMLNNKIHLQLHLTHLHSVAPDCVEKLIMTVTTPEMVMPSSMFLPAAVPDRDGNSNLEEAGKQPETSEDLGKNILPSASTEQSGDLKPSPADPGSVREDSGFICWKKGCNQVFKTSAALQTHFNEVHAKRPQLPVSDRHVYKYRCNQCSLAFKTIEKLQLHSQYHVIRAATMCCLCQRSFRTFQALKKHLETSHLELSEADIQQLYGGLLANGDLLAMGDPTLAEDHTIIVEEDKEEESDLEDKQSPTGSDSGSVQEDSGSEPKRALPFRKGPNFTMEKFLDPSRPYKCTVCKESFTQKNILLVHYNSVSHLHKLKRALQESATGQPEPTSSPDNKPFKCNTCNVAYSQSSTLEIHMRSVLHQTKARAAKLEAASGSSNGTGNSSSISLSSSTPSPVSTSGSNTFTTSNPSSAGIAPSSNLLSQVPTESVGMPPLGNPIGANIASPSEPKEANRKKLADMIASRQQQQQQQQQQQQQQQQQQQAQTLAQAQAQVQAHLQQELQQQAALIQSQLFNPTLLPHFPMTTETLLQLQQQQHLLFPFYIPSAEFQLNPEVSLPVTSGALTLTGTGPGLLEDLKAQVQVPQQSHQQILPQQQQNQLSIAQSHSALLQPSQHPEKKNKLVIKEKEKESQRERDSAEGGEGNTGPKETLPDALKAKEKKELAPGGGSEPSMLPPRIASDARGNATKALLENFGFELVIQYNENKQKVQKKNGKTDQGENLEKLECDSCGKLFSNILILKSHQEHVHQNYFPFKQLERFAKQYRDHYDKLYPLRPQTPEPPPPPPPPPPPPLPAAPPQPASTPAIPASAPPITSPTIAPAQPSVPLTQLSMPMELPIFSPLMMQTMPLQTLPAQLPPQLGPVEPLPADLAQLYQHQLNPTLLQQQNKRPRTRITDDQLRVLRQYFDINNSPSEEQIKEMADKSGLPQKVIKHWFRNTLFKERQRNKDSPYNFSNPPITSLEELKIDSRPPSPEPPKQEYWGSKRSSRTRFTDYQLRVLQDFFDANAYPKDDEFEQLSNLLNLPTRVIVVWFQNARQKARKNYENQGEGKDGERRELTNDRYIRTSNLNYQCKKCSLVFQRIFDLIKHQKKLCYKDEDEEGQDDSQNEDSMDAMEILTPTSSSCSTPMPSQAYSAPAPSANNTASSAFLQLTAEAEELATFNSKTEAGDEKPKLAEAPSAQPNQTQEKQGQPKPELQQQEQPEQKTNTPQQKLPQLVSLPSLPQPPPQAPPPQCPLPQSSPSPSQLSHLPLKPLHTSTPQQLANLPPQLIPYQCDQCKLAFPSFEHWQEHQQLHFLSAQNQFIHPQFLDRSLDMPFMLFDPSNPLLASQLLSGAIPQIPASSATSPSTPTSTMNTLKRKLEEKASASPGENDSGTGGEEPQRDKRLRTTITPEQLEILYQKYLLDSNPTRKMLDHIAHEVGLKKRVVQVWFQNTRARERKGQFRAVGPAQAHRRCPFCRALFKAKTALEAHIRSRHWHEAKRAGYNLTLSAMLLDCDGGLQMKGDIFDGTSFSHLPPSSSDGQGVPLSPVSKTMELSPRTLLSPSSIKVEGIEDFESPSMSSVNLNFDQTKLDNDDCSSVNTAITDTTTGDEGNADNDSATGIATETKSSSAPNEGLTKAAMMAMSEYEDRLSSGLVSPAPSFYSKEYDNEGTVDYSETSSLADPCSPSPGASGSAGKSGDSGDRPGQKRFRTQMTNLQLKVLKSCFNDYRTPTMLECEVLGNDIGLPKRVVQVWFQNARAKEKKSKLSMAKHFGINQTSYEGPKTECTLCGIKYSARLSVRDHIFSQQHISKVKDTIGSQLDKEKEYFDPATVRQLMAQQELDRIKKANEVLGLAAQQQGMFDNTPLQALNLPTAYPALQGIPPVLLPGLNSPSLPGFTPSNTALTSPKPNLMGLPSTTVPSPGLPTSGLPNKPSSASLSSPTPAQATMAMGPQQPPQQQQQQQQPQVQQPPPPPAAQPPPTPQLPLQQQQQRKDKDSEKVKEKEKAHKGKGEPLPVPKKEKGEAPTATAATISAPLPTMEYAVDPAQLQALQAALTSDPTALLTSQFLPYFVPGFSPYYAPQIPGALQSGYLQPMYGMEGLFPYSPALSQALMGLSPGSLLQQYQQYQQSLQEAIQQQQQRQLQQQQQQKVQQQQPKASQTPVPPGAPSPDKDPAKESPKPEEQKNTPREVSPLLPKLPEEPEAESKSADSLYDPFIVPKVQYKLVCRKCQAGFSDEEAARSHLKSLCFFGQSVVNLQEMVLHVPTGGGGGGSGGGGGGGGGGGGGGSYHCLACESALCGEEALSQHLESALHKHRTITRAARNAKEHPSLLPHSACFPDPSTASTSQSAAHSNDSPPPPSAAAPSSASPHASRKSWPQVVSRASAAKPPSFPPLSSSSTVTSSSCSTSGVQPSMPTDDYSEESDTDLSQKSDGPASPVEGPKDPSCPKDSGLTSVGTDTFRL
binder,measurement,setting,value
TATA-box (dsDNA) DNA 1: GCGGCGCTCTATATAAGTGGGCAGTG DNA 2: CACTGCCCACTTATATAGAGCGCCGC,apparent K (half saturation),ZFHX3,289 nM
CTCF (dsDNA) DNA 1: TCAGAGTGGCGGCCAGCAGGGGGCGCCCTTGCCAGA DNA 2: TCTGGCAAGGGCGCCCCCTGCTGGCCGCCACTCTGA,apparent K (half saturation),ZBTB10,40.4 nM
same,apparent K (half saturation),ESRRA,319 nM
same,apparent K (half saturation),SMAD4,153 nM
TEAD (dsDNA) DNA 1: TCGGGACCCAGGCCTGGAATGTTTCCACC DNA 2: GGTGGAAACATTCCAGGCCTGGGTCCCGA,apparent K (half saturation),NFATC3,46.7 nM
